Data reported in article PMC4945072, “GNG Motifs Can Replace a GGG Stretch during G-Quadruplex Formation in a Context Dependent Manner”.

Target: Nucleolin 284-710 (UniProt P19338 284-710)
Assay: EMSA; 100 mM KCl; EMSA: oligo folded in binding buffer (composition not given) + 100 mM KCl, 37 C 1 h; nucleolin 100 ng, 4 C 2 h, 8% native gel + 100 mM KCl at 4 C; BG4 37 C 30 min, 6% native gel + 100 mM KCl at RT; CD: 1x PBS + 100 mM KCl
Details: protein: recombinant, tags: His, label: 5'-32P (EMSA)

Chain of Nucleolin 284-710 (P19338 284-710): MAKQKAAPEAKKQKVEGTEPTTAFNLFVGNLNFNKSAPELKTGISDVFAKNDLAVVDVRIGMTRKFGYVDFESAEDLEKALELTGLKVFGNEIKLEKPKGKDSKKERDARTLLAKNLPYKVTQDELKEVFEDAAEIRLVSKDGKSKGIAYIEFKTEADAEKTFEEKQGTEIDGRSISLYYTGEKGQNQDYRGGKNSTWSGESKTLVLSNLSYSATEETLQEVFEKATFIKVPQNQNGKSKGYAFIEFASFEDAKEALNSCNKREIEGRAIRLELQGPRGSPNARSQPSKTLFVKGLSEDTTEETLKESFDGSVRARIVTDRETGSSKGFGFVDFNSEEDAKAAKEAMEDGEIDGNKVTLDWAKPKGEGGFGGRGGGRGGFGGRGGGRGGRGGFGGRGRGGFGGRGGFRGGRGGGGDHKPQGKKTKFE

Binder	binding result (single strand)	binding result (intramolecular parallel G4, two G stretches plus GNG motifs)
GCTCCGCCCCGCGCCCCCGGAAACCTCC (ssDNA) [KD53 (C-rich reverse complement of KD52)]	no binding	–
GGAGGTTTCCGGGGGCGCGGGGCGGAGC (structured_DNA) [KD52 (SHOX G-rich strand)]	–	binds
